From patent US20220162259A1, “PEPTIDE COMPLEX AND PRODUCTION METHOD THEREFOR, AND USE OF SAID PEPTIDE COMPLEX” (KANEKA CORPORATION, priority 2019, published 2022)
Numbered stars: 1 amine (or outer) side, 2 acyl side, 3 side chain; on linkers, the order of the positions; unused ones are H or OH. Bridge positions count the residues as written; N and C are the ends. Square brackets hold non-standard residues; d marks the D form. Ends that are not written are not given here. Peptide text beside a SMILES is read from it. * marks the point of attachment. X1 = NC(N)=NCCNC(=O)CCOCC(COCCC(=O)NCCN=C(N)N)(COCCC(=O)NCCN=C(N)N)NC(=O)CON=C(C[*:1])C[*:2]; FITC = O=C1OC2(c3ccc(O)cc3Oc3cc(O)ccc32)c2ccc(NC(=S)*)cc21; Ahx = NCCCCCC(=O)O

Tested on: HeLa cells
Experiment: Evaluation of cell-membrane permeability (flow cytometry of FITC-labelled peptide complexes)
Format: cell-based, Human
Conditions: for Mode of fluorescence intensity, 0 hour of culture / Mode of fluorescence intensity, 1 hour of culture: 2 μM peptide complex, flow cytometer; for Mode of fluorescence intensity, 0 hour of culture: living (propidium iodide-negative) cells; for Mode of fluorescence intensity, 1 hour of culture: 37° C., 5% CO2, living (propidium iodide-negative) cells; for Level of cell-membrane permeation compared with Comparative Example 1: at 1 hour of culture, versus peptide complex of Comparative Example 1
Experimental: HeLa cells (Human cervix adenocarcinoma cells) were cultured for 1 hour in a cell culture containing 2 μM of the peptide complex synthesized in Example 1 or 2 or Comparative Example 1 under conditions of 5% (v/v) CO2 and 37° C. For culturing the HeLa cells, FluoroBrite D-MEM (obtained from ThermoFisher Co.) (supplemented with 10% (v/v) FCS (fetal calf serum) and 10% (v/v) GlutaMax (obtained from ThermoFisher Co.)) was used.
Next, the surfaces of the cells were washed with D-PBS (−) (supplemented with heparin (20 units/mL)), followed by recovery of the cells. The cells were suspended in D-PBS(−) (supplemented with 0.5% (v/v) BSA (bovine serum albumin), 200 mM EDTA (ethylenediaminetetraacetic acid), and 0.2% (v/v) propidium iodide (obtained from Sigma-Aldrich Co.)). A flow cytometer (BD FACS AriaIII) was used to measure fluorescence intensity. Upon flow cytometry analysis, the mode of fluorescence intensity was calculated for a population of living cells excluding dead cells that were propidium iodide-positive. As a control, dimethyl sulfoxide (DMSO) not containing the peptide complex was tested in the same manner.

Row | Molecule | Mode of fluorescence intensity, 0 hour of culture | Mode of fluorescence intensity, 1 hour of culture | Level of cell-membrane permeation compared with Comparative Example 1
1 | CC[C@H](C)[C@@H]1NC(=O)[C@H](Cc2ccc(O)cc2)NC(=O)[C@H](CC(C)C)NC(=O)[C@H](CCSC)NC(=O)[C@@H](NC(=O)CCCCCNC(=S)Nc2ccc3c(c2)C(=O)OC32c3ccc(O)cc3Oc3cc(O)ccc32)CSCC(=NOCC(=O)NC(COCCC(=O)NCCN=C(N)N)(COCCC(=O)NCCN=C(N)N)COCCC(=O)NCCN=C(N)N)CSC[C@@H](C(N)=O)NC(=O)CNC(=O)[C@H](C(C)C)NC(=O)[C@H](CO)NC(=O)[C@H](Cc2ccccc2)NC(=O)[C@H](Cc2ccc(O)cc2)NC(=O)[C@@H]2CCCN2C(=O)[C@H](C(C)C)NC1=O [Comparative Example 1, reference compound] ({FITC-Ahx}-CMLYIVPYFSVGC-NH2; linker 1-13 via X1) | 66.6 | 412 | –
2 | Example 2: FITC-labelled cyclic peptide CMLYIVPYFSVGC with cell-membrane-permeability-imparting group G9 (three dendritic units, nine guanidino groups) bound by oxime ligation (not fully specified (N-terminus, C-terminus, bridges); also: cyclic, mode not given here, FITC label, place not given here, G9 guanidino dendron bound by oxime ligation, place not given here) | 65.8 | 877 | higher levels of cell-membrane permeation
3 | Example 1: FITC-labelled cyclic peptide CMLYIVPYFSVGC with cell-membrane-permeability-imparting group G6 (two dendritic units, six guanidino groups) bound by oxime ligation ([Ahx]CMLYIVPYFSVGC-NH2; not fully specified (bridges); numbers in words are those of the source; also: cyclic, mode not given here, FITC label, place not given here, G6 guanidino dendron bound by oxime ligation, place not given here) | 60 | 730 | higher levels of cell-membrane permeation
